The target of the test is Arabidopsis thaliana transthyretin-like protein (TTL), 311-residue cytoplasmic isoform (Arabidopsis thaliana). Put plainly: SEC + other: sucrose density gradient rate zonal ultracentrifugation; Siegel and Monty method: Stokes radius from analytical gel filtration (Superose 12 10/300, 0.5 ml/min) and sedimentation coefficient from 5 to 20% sucrose gradients (25 h 15 min, 260800 g, SW41 Ti), both in buffer C (150 mM NaCl, EDTA, 20 mM Tris-HCl, pH 8.0); native mass 137.3 kDa against a subunit of 36.6 kDa.

In general, stoichiometry N refers to the number of molecules, sites or subunits per partner or assembly. As for “Arabidopsis thaliana transthyretin-like protein (TTL), 311-residue cytoplasmic isoform (enzyme)”, the stoichiometry N stood at 4.

These data come from article PMC2834698.
